Measurements: patent EP3170507A1 (Consejo Superior de Investigaciones Cientificas (CSIC), dated 2017)

target: T1, rabbit-lung angiotensin converting enzyme (ACE) (Sigma) (rabbit, UniProt P12822 34-1310, limits assumed); test: cell-based or functional assay
T1 sequence (looked up): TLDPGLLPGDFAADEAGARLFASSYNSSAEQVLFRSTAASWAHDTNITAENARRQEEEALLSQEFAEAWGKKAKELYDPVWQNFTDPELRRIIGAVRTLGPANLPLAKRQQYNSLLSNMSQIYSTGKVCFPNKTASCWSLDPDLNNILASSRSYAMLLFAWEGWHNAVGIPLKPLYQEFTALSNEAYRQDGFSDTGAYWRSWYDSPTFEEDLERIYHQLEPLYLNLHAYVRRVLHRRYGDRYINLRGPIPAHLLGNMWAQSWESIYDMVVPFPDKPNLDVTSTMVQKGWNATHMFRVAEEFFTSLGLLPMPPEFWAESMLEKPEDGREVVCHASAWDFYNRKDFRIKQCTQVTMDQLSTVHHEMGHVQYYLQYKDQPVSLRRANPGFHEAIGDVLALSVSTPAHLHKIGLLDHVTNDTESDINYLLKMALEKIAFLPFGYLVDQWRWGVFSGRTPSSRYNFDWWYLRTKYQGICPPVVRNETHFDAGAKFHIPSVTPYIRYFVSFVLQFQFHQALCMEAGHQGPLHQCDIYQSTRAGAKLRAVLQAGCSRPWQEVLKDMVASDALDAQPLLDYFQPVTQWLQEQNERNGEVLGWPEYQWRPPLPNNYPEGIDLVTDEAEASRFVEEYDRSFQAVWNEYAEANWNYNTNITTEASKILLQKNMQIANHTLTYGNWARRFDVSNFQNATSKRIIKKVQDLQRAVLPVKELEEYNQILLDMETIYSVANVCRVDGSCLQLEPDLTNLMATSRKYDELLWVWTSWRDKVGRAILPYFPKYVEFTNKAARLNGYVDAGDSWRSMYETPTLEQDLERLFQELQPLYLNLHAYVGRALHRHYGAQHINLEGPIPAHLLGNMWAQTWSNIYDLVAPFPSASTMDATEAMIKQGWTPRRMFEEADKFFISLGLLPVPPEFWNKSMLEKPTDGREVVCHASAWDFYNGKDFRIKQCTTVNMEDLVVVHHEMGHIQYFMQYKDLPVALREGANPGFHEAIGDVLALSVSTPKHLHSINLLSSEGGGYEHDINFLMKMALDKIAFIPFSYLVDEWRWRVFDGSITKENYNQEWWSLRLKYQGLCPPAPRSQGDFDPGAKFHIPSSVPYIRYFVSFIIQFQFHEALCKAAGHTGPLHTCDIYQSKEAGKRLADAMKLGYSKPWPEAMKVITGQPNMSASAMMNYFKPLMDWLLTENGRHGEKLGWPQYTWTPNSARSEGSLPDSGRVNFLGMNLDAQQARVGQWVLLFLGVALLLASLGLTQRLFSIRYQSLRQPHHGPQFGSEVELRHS

Row | ACE inhibitory activity, IC50 [nM] | Binder
1 | 1850 | YGCGCDPL [SEQ ID NO: 3 peptide YGCGCDPL]
2 | 2590 | HCGCNTH [SEQ ID NO: 5 peptide HCGCNTH]
3 | 2580 | LEEFCC [SEQ ID NO: 4 peptide LEEFCC]
4 | 1640 | YYCPADCPS [SEQ ID NO: 2 peptide YYCPADCPS]
5 | 840 | RDGGYCC [SEQ ID NO: 1 peptide RDGGYCC]
6 | 39600 | CCGNAVPQ [SEQ ID NO: 7 peptide CCGNAVPQ]
7 | 6880 | WAAGYCC [SEQ ID NO: 6 peptide WAAGYCC]
